Assay results as given in patent US20240374603A1, “PHARMACEUTICAL PREPARATION, PREPARATION METHOD THEREFOR AND USE THEREOF” (COHERENT BIOPHARMA (SUZHOU) LIMITED, priority 2021, published 2024).
*1 amine or outer side, *2 acyl side, *3 side chain or, on linkers, in order; H or OH if unused. Where a SMILES comes first, the peptide text is derived from it. Bridges are numbered along the chain shown (N, C = ends). Roman numbers before positions name the chains, in order. [ ]: non-standard residue; d: D form. The star is where a group is joined. ξ: configuration not given here. Hexanoyl(6-succinimido-3yl) = O=C1CC([*:1])C(=O)N1CCCCCC(=O)[*:2]; Pteroyl = Nc1nc2ncc(CNc3ccc(C(=O)*)cc3)nc2c(=O)[nH]1; Dolaproine(all-ξ) = COC(C(C)C(=O)[*:2])C1CCCN1[*:1]; X1 = CCC(C)C(C(CC(=O)[*:2])OC)N(C)[*:1]; γGlu = O=C(O)[CH](CCC(=O)[*:2])N[*:1]; PABC = O=C(OCc1ccc(N[*:1])cc1)[*:2]; Cit = NC(=O)NCCC[CH](N)C(=O)O; NMeV = CN[CH](C(=O)O)C(C)C; X2 = CC(N*)C(O)c1ccccc1

Key:
[1] = Final prescription and process confirmation, stability at 25° C. and 40° C.; format: physicochemical; settings: final prescription (Example 7); for % Moisture / % Total impurity / Re-dissolution time s: freeze-dried; for pH value: re-dissolution pH
Protocol: In view of the results of the prescription screening experiment, the prescription process confirmation experiment was carried out to investigate the stability of the final prescription.

[2] = pH confirmation in freeze-dried form, stability at 30° C. for 1 month; format: physicochemical; settings: pH range of 6.9 to 7.7, 30° C. for 1 month
Protocol: An aqueous solution containing LDC10B (5 mg/mL), mannitol (40 mg/mL), sucrose (10 mg/mL) and tromethamine (0.765 mg/mL) was prepared, and the pH was adjusted to 6.9, 7.3 and 7.7 with dilute hydrochloric acid, respectively; the resulting solutions were filtered and sub-packaged into vials, half of a stopper was pressed into the vial, freeze-drying was performed, and the vials were capped. The stability of each sample was investigated at 30° C. for 1 month.

CCC(C)C(C(CC(=O)N1CCCC1C(OC)C(C)C(=O)NC(C)C(O)c1ccccc1)OC)N(C)C(=O)C(NC(=O)C(C(C)C)N(C)C(=O)OCc1ccc(NC(=O)C(CCCNC(N)=O)NC(=O)C(NC(=O)CCCCCN2C(=O)CC(SCC(NC(=O)CCC(NC(=O)c3ccc(NCc4cnc5[nH]c(N)nc(=O)c5n4)cc3)C(=O)O)C(=O)NC(CCCCN)C(=O)NC(CCC(=O)O)C(=O)NC(Cc3ccccc3)C(=O)NC(CC(C)C)C(=O)NC(Cc3cnc[nH]3)C(=O)N3CCCC3C(=O)NC(CO)C(=O)NC(CCCCN)C(=O)NC(C(=O)NC(CC(=O)O)C(=O)NC(CC(C)C)C(=O)N3CCCC3C(=O)NC(CCCNC(=N)N)C(=O)O)C(C)C)C2=O)C(C)C)cc1)C(C)C (stereo not shown) [LDC10B] (I: {Pteroyl-γGlu}-CKEFLHPSKVDLPR-OH / II: V[Cit][PABC][NMeV]V[X1][Dolaproine(all-ξ)]-X2; linker I:1-II:N via Hexanoyl(6-succinimido-3yl); configuration not given here)
% Moisture ([1]; 25° C., 0 day): 0.42%
% Total impurity ([1]; 25° C., 0 day): 0.44%
Re-dissolution time s ([1]; 25° C., 0 day): 160 s
% Moisture ([1]; 25° C., 1 month): 1.79%
% Total impurity ([1]; 25° C., 1 month): 0.51%
Re-dissolution time s ([1]; 25° C., 1 month): 154 s
% Moisture ([1]; 25° C., 2 months): 1.97%
% Total impurity ([1]; 25° C., 2 months): 0.61%
Re-dissolution time s ([1]; 25° C., 2 months): 114 s
% Moisture ([1]; 25° C., 3 months): 2.19%
% Total impurity ([1]; 25° C., 3 months): 0.81%
Re-dissolution time s ([1]; 25° C., 3 months): 174 s
% Moisture ([1]; 25° C., 6 months): 2.62%
% Total impurity ([1]; 25° C., 6 months): 1.21%
Re-dissolution time s ([1]; 25° C., 6 months): 128 s
% Moisture ([1]; 40° C., 0 day): 1.2%
% Total impurity ([1]; 40° C., 0 day): 0.33%
Re-dissolution time s ([1]; 40° C., 0 day): 148 s
% Moisture ([1]; 40° C., 5 day): 1.0%
% Total impurity ([1]; 40° C., 5 day): 0.48%
Re-dissolution time s ([1]; 40° C., 5 day): 139 s
% Moisture ([1]; 40° C., 10 day): 1.2%
% Total impurity ([1]; 40° C., 10 day): 0.54%
Re-dissolution time s ([1]; 40° C., 10 day): 118 s
% Moisture ([1]; 40° C., 30 day): 1.8%
% Total impurity ([1]; 40° C., 30 day): 0.69%
Re-dissolution time s ([1]; 40° C., 30 day): 135 s
pH value ([1]; 25° C., 0 day): 7.4
pH value ([1]; 25° C., 1 month): 7.5
pH value ([1]; 25° C., 2 months): 7.2
pH value ([1]; 25° C., 3 months): 7.4
pH value ([1]; 25° C., 6 months): 7.3
pH value ([1]; 40° C., 0 day): 7.4
pH value ([1]; 40° C., 5 day): 7.1
pH value ([1]; 40° C., 10 day): 7.3
pH value ([1]; 40° C., 30 day): 7.4
quality of the freeze-dried preparation [2]: stable
